B1: 4-O-(Ac-4-trans-L-HypSSChgQ-S(dS)-4-trans-L-Hyp)-dAc-VIN (peptide)
peptide: XSSXQSXX
modifications: N-terminal acetyl; 4-trans-L-hydroxyproline at 1 and 8; Chg at 4; D-Ser at 7; C-terminus esterified to the 4-O of des-acetylvinblastine
B2: 4-O-(Ac-4-trans-L-HypSSChgQSS-(d)-Pro)-(dAc)-VIN (peptide)
peptide: XSSXQSSP
modifications: N-terminal acetyl; 4-trans-L-hydroxyproline at 1; Chg at 4; D-Pro at 8, esterified to the 4-O of des-acetylvinblastine
B3: 4-O-[(2-OH)Ac-SChgQSS-Sar]-dAc-VIN (peptide)
peptide: XXQSSX
modifications: N-terminal hydroxyacetyl ((2-OH)Ac); Chg at 2; sarcosine at 6, esterified to the 4-O of des-acetylvinblastine

What follows are binders tested against free prostate specific antigen (PSA) (human, UniProt P07288 25-261) (assay: cell-based or functional assay).

Binder | Time to 50% Substrate Cleavage by York PSA (Min); cell gives percent cleaved at 1 hour [% cleaved at 1 hour]
B1 | 12
B2 | 34
B3 | 4

— patent US20040081659A1 (MERCK, published 2004)
